The supplement of paper PMC7877785
± gives the uncertainty stated by the source.

Experiment: self-splicing fitness, log relative to wild type (ln ratio); higher = more splicing; Tetrahymena group I intron in knt gene, E. coli kanamycin selection, DiMSum; sequences stand for … in CUCUCU…GGAGGGAAAAGUUAUCAGGCAUGCACCUGGUAGCUAGUCUUUAAACCAAUAGAUUGCAUCGGUUUAAAAGGCAAGACCGUCAAAUUGCGGGAAAGGGGUCAACAGCCGUUCAGUACCAAGUCUCAGGGGAAACUUUGAGAUGGCCUUGCAAAGGGUAUGGUAAUAAGCUGACGGACAUGGUCCUAACCACGCAGCCAAGUCCUAAGUCAACAGAUCUUCUGUUGAUAUGGAUGCAGUUCACAGACUAAAUGUCGGUCGGGGAAGAUGUAUUCUUCUCAUAAGAUAUAGUCGGACCUCUCCUUAAUGGGAGCUAGCGGAUGAAGUGAUGCAACACUGGAGCCGCUGGGAACUAAUUUGUAUGCGAAAGUAUAUUGAUUAGUUUUGGAGUACUCGUGGUCG
Outline: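 Fitness was computed with DiMSum as the error-weighted combination of replicate fold changes, kanamycin versus none, each normalised to wild type. The library randomised all eight intron nucleotides of the P1ex region, with the intron placed in the knt kanamycin-resistance gene on pET-22b(+) in E. coli BL21(DE3). Six replicate transformations were grown overnight at 37°C or 30°C on LB agar with or without 25 μg/mL kanamycin, plus 100 μg/mL carbenicillin, 50 μM IPTG and 0.2% rhamnose. Pooled colonies were amplicon-sequenced on an Illumina HiSeq 2500.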

Sequence	self-splicing fitness (ln) (30 °C)	self-splicing fitness (ln) (37 °C)
UAGUAGCAAUAUUACGUACA	-1.05 ± 0.064	-0.269 ± 0.081
UAGUAGCAAUAUUACGUAGC	-3.52 ± 0.22	-1.37 ± 0.2
UAGUAGCAAUAUUACGUCAU	-3.57 ± 0.37	
UAGUAGCAAUAUUACGUGAU	-3.84 ± 0.33	-2.18 ± 0.28
UAGUAGCAAUAUUACGUGGG	-3.26 ± 0.25	-1.41 ± 0.17
UAGUAGCAAUAUUACGUGUA	-3.16 ± 0.21	-0.527 ± 0.12
UAGUAGCAAUAUUACGUUAG	-1.52 ± 0.17	-1.97 ± 0.21
UAGUAGCAAUAUUACGUUCA	-0.66 ± 0.15	0.327 ± 0.15
UAGUAGCAAUAUUACGUUCC	-4.21 ± 0.35	-0.984 ± 0.19
UAGUAGCAAUAUUACGUUGU	-4.09 ± 0.25	-2.13 ± 0.14
UAGUAGCAAUAUUACGUUUU	-3.14 ± 0.14	-2.27 ± 0.16
UAUAAGCAAUAUUACGAAGA	-2.72 ± 0.24	-1.66 ± 0.16
UAUAAGCAAUAUUACGACAG	-0.587 ± 0.11	-0.0617 ± 0.15
UAUAAGCAAUAUUACGACCU	0.317 ± 0.2	-0.146 ± 0.23
UAUAAGCAAUAUUACGACUA	0.0842 ± 0.075	0.29 ± 0.094
UAUAAGCAAUAUUACGAGUC	-1.69 ± 0.32	
UAUAAGCAAUAUUACGAGUG	0.0329 ± 0.08	-0.16 ± 0.099
UAUAAGCAAUAUUACGCACU	0.11 ± 0.12	-0.923 ± 0.12
UAUAAGCAAUAUUACGCCCA	-0.492 ± 0.13	-0.495 ± 0.2
UAUAAGCAAUAUUACGCCCG	0.0737 ± 0.21	0.591 ± 0.3
UAUAAGCAAUAUUACGCCGU	-1.41 ± 0.49	
UAUAAGCAAUAUUACGCGAA	-1.09 ± 0.15	-0.98 ± 0.16
UAUAAGCAAUAUUACGCGGG	-2.17 ± 0.14	-1.89 ± 0.18
UAUAAGCAAUAUUACGCUGG	-1.44 ± 0.13	-0.93 ± 0.18
UAUAAGCAAUAUUACGCUUA	-1.88 ± 0.27	-0.653 ± 0.2

Sequence	self-splicing fitness (ln) (30 °C)	self-splicing fitness (ln) (37 °C)
UAUAAGCAAUAUUACGGGCU	-2.64 ± 0.31	-1.71 ± 0.31
UAUAAGCAAUAUUACGGGUU	-3.04 ± 0.16	-3.53 ± 0.23
UAUAAGCAAUAUUACGGUAG	-1.59 ± 0.077	-0.912 ± 0.095
UAUAAGCAAUAUUACGGUGG	-1.67 ± 0.13	-0.746 ± 0.13
UAUAAGCAAUAUUACGUAUG	-1.31 ± 0.091	-0.577 ± 0.12
UAUAAGCAAUAUUACGUCGC	-3.29 ± 0.28	-2.24 ± 0.37
UAUAAGCAAUAUUACGUGUA	-1.48 ± 0.1	-0.896 ± 0.1
UAUCAGCAAUAUUACGACAU	-0.823 ± 0.012	-0.0787 ± 0.032
UAUCAGCAAUAUUACGAGGC		-2.77 ± 0.37
UAUCAGCAAUAUUACGAUAC	-3.07 ± 0.28	-1.85 ± 0.25
UAUCAGCAAUAUUACGAUAU	-2.41 ± 0.11	-1.64 ± 0.13
UAUCAGCAAUAUUACGCAAG	-0.949 ± 0.074	0.273 ± 0.097
UAUCAGCAAUAUUACGCACG	-0.349 ± 0.11	0.232 ± 0.14
UAUCAGCAAUAUUACGCAGA	-1.57 ± 0.15	-1.03 ± 0.1
UAUCAGCAAUAUUACGCGAG	-0.712 ± 0.057	-0.298 ± 0.071
UAUCAGCAAUAUUACGCGGG	-0.936 ± 0.076	-1.14 ± 0.098
UAUCAGCAAUAUUACGCGUU	-1.7 ± 0.13	-1 ± 0.17
UAUCAGCAAUAUUACGCUCU	0.148 ± 0.12	0.416 ± 0.13
UAUCAGCAAUAUUACGCUGG	-3.15 ± 0.25	-1.62 ± 0.21
UAUCAGCAAUAUUACGGAUA	-2.17 ± 0.24	-1.85 ± 0.31
UAUCAGCAAUAUUACGGCGC	-2.69 ± 0.18	-1.12 ± 0.21
UAUCAGCAAUAUUACGGCGG	-0.918 ± 0.086	0.373 ± 0.093
UAUCAGCAAUAUUACGGGAU	-3.78 ± 0.24	-1.72 ± 0.14
UAUCAGCAAUAUUACGGGCA	-0.0174 ± 0.066	0.193 ± 0.084
UAUCAGCAAUAUUACGGGGA	-1.76 ± 0.094	-0.643 ± 0.1

Sequence	self-splicing fitness (ln) (30 °C)	self-splicing fitness (ln) (37 °C)
UAUCAGCAAUAUUACGGGGC	-2.85 ± 0.18	-2.59 ± 0.19
UAUCAGCAAUAUUACGGGGG	-1.51 ± 0.092	-1.11 ± 0.14
UAUCAGCAAUAUUACGUAGC	-2.63 ± 0.16	-1.42 ± 0.2
UAUCAGCAAUAUUACGUAUU	-0.834 ± 0.078	-0.815 ± 0.094
UAUCAGCAAUAUUACGUCAC	-4 ± 0.31	-1.83 ± 0.3
UAUCAGCAAUAUUACGUCCG	-0.361 ± 0.11	0.121 ± 0.14
UAUCAGCAAUAUUACGUCGC		-2.03 ± 0.33
UAUCAGCAAUAUUACGUCUA	-0.033 ± 0.078	0.747 ± 0.1
UAUCAGCAAUAUUACGUGUG	-0.333 ± 0.058	0.407 ± 0.076
UAUGAGCAAUAUUACGAAAU	-3.68 ± 0.37	
UAUGAGCAAUAUUACGAAUU	-2.36 ± 0.33	-1.73 ± 0.32
UAUGAGCAAUAUUACGACGA	-1.87 ± 0.36	-1.62 ± 0.34
UAUGAGCAAUAUUACGAGAC	-2.85 ± 0.39	-2.4 ± 0.32
UAUGAGCAAUAUUACGAGAU		-2.19 ± 0.3
UAUGAGCAAUAUUACGAGCU	-2.71 ± 0.2	-2.09 ± 0.42
UAUGAGCAAUAUUACGAGUU	-3.21 ± 0.17	-2.57 ± 0.24
UAUGAGCAAUAUUACGAUAG	-2.31 ± 0.35	-0.767 ± 0.38
UAUGAGCAAUAUUACGAUAU	-3.47 ± 0.26	-2.02 ± 0.36
UAUGAGCAAUAUUACGAUCG	-1.79 ± 0.12	-0.568 ± 0.12
UAUGAGCAAUAUUACGAUGG	-3.59 ± 0.29	-0.796 ± 0.23
UAUGAGCAAUAUUACGCAUG	-2.53 ± 0.11	-1.76 ± 0.15
UAUGAGCAAUAUUACGCCUU	-3.19 ± 0.29	-2.11 ± 0.34
UAUGAGCAAUAUUACGCGAA	-1.62 ± 0.18	-0.947 ± 0.32
UAUGAGCAAUAUUACGGCAC	-2.09 ± 0.28	
UAUGAGCAAUAUUACGGCUU		-1.62 ± 0.32

Sequence	self-splicing fitness (ln) (30 °C)	self-splicing fitness (ln) (37 °C)
UAUGAGCAAUAUUACGGUCA	-2.22 ± 0.25	-1.65 ± 0.25
UAUGAGCAAUAUUACGUCAG	-2.82 ± 0.14	-2.51 ± 0.2
UAUGAGCAAUAUUACGUCCU	-2.35 ± 0.23	-2.19 ± 0.49
UAUGAGCAAUAUUACGUCGG	-2.86 ± 0.23	-2.18 ± 0.2
UAUGAGCAAUAUUACGUCUA	-0.497 ± 0.1	-0.408 ± 0.13
UAUGAGCAAUAUUACGUGCU	-3.7 ± 0.32	-2.39 ± 0.34
UAUGAGCAAUAUUACGUUGA	-2.96 ± 0.26	-1.25 ± 0.17
UAUGAGCAAUAUUACGUUUA	-2.59 ± 0.24	-1.94 ± 0.14
UAUGAGCAAUAUUACGUUUC	-3.66 ± 0.4	-1.67 ± 0.32
UAUUAGCAAUAUUACGACAC	-1.54 ± 0.14	-1.92 ± 0.21
UAUUAGCAAUAUUACGCACC	-2.77 ± 0.26	-0.337 ± 0.2
UAUUAGCAAUAUUACGCCUA	-0.107 ± 0.15	-0.038 ± 0.14
UAUUAGCAAUAUUACGGAAG	-2.63 ± 0.31	-1.9 ± 0.25
UAUUAGCAAUAUUACGGAUG	-0.629 ± 0.09	-0.294 ± 0.12
UAUUAGCAAUAUUACGGCUA	-0.404 ± 0.15	0.399 ± 0.14
UAUUAGCAAUAUUACGGGCC	-2.84 ± 0.42	
UAUUAGCAAUAUUACGGGGA	-2.39 ± 0.22	-0.989 ± 0.18
UAUUAGCAAUAUUACGGUUU	-3.75 ± 0.37	-2.08 ± 0.2
UAUUAGCAAUAUUACGUAAG	-2.05 ± 0.18	-1.41 ± 0.25
UAUUAGCAAUAUUACGUCAG	-1.84 ± 0.1	-0.992 ± 0.12
UAUUAGCAAUAUUACGUCCG	-0.732 ± 0.16	-0.925 ± 0.19
UAUUAGCAAUAUUACGUCGU	-2.82 ± 0.28	-3.02 ± 0.32
UAUUAGCAAUAUUACGUCUU	-1.86 ± 0.14	-0.681 ± 0.15
